Assay results: patent publication US20210169936A1 (AFFIMED, published 2021)

Assays:
[1] = biological target: human CD16A(48R, 158V) ECD fused to monomeric mFc.67 (human) (UniProt P08637); assay: ELISA, coated antigen-mFc
[2] = biological target: human CD16B(NA1) ECD, mature form (without propeptide), fused to monomeric Fc (human) (UniProt O75015); assay: ELISA, coated antigen-mFc
[3] = biological target: Cynomolgus CD16A fused to IgG Fc (cynomolgus; human) (UniProt Q8SPW2); assay: ELISA, coated antigen-IgG Fc
Sequence of Cynomolgus CD16A fused to IgG Fc (cynomolgus; human) (Q8SPW2 17-208): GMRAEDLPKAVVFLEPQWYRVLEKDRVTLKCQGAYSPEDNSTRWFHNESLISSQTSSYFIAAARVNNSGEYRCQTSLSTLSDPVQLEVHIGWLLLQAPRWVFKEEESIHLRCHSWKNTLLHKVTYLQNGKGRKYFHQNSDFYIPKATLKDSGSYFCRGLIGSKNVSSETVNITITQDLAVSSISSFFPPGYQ

[4] = biological target: Human CD16A^(48R, 158F) fused to IgG Fc (human) (UniProt P08637); assay: ELISA, coated antigen-IgG Fc
Sequence of Human CD16A^(48R, 158F) fused to IgG Fc (human) (P08637 17-208 L66R): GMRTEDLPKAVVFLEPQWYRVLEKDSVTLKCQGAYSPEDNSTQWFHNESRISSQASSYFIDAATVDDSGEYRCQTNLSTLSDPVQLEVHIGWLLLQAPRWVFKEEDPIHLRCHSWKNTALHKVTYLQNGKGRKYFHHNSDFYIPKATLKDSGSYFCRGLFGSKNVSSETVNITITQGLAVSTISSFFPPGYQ

[5] = biological target: Human CD16A^(48R, 158V) fused to IgG Fc (human) (UniProt P08637); assay: ELISA, coated antigen-IgG Fc
Sequence of Human CD16A^(48R, 158V) fused to IgG Fc (human) (P08637 17-208 L66R/F176V): as the sequence (P08637 17-208 L66R) above, with F160V counted along it

[6] = biological target: T1, CD16A on primary human NK cells (human, UniProt P08637); assay: flow cytometry on primary human NK cells at 37 °C, without IgG; anti-His mAb and FITC goat anti-mouse IgG
T1 construct: full length, on the cell surface; also called FcgRIIIA on enriched human NK cells
T1 sequence (P08637 17-254 limits assumed): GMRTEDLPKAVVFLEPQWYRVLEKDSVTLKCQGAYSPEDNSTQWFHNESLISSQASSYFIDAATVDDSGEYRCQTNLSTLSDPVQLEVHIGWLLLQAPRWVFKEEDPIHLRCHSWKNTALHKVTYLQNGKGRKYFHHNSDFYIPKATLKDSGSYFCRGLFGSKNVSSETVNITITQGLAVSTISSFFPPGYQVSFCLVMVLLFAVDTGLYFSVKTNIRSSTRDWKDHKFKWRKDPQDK

[7] = biological target: T1, CD16A on primary human NK cells; assay: flow cytometry on primary human NK cells at 37 °C, with 10 mg/mL polyclonal human IgG; anti-His mAb and FITC goat anti-mouse IgG
[8] = biological target: human CD16B ECD mutant H140Y fused to monomeric mFc.67 (human) (UniProt O75015); assay: ELISA, coated antigen-mFc
Sequence of human CD16B ECD mutant H140Y fused to monomeric mFc.67 (human) (O75015 other isoform, or with tags, fused parts or gaps H140Y H140Y): as the sequence (P08637 17-208 L66R) above, with S49N, R50L, I90V, G131D, F160V, F187S counted along it

[9] = biological target: Human CD16B^H140Y fused to IgG Fc (human) (UniProt O75015); assay: ELISA, coated antigen-IgG Fc
Sequence of Human CD16B^H140Y fused to IgG Fc (human) (O75015 other isoform, or with tags, fused parts or gaps H140Y H140Y limits assumed): as the sequence (P08637 17-208 L66R) above, with S49N, R50L, I90V, G131D, F160V, F187S counted along it

[10] = biological target: Human CD16B(NA1)^pr fused to IgG Fc (human) (UniProt O75015); assay: ELISA, coated antigen-IgG Fc
Sequence of Human CD16B(NA1)^pr fused to IgG Fc (human) (O75015 other isoform, or with tags, fused parts or gaps limits assumed): as the sequence (P08637 17-208 L66R) above, with S49N, R50L, I90V, G131D, Y142H, F160V, F187S counted along it

[11] = biological target: T2, mature ECD of CD16B(NA1) expressed on the CHO cell surface (human, UniProt O75015 17-200); assay: binding to recombinant CHO cells
T2 construct: mature; not shown: membrane anchor: transmembrane domain of human EGFR or GPI anchor
T2 sequence (O75015 other isoform, or with tags, fused parts or gaps): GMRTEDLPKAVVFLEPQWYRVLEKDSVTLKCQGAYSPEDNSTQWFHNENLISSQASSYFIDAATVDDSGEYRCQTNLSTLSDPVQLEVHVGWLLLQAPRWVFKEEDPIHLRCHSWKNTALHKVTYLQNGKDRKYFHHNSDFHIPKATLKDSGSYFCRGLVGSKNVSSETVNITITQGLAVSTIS

[12] = biological target: T3, propeptide-containing ECD of CD16B(NA1) expressed on the CHO cell surface (human, UniProt O75015 17-208); assay: binding to recombinant CHO cells
T3 construct: extracellular domain; not shown: membrane anchor: transmembrane domain of human EGFR or GPI anchor
T3 sequence (O75015 other isoform, or with tags, fused parts or gaps): as the sequence (P08637 17-208 L66R) above, with S49N, R50L, I90V, G131D, Y142H, F160V, F187S counted along it

[13] = biological target: T4, recombinant EGFR expressed on CHO cells (specificity control) (UniProt P00533 25-1210, limits assumed); assay: flow cytometry, MFI in cell binding to recombinant CHO cells; antigen EGFRTM anchored
T4 construct: whole, on cells; also called control EGFR antigen

[14] = biological target: T1, CD16A on primary human NK cells; assay: flow cytometry on primary human NK cells at 37 °C, without IgG; anti-His mAb and FITC goat anti-mouse IgG; remark: listed apart in the source
Description: (§1) After the last staining step, the cells were washed again and resuspended in 0.2 mL of FACS buffer containing 2 μg/mL propidium iodide (PI) (Sigma, cat.: P4170) in order to exclude dead cells. […] For the calculation of KD, the equation for one-site-binding (hyperbola) was used.

[15] = biological target: T1, CD16A on primary human NK cells; assay: as above; remark: listed apart in the source
Description: as §1

[16] = biological target: T5, huCD16A (48R,158V), EGFRTM anchored (human, UniProt P08637;P00533); assay: flow cytometry, MFI in cell binding to recombinant CHO cells; antigen EGFRTM anchored
T5 construct: extracellular domain;transmembrane domain; Expressed on recombinant CHO cells; one member of the group m39
T5 sequence (P08637 other isoform, or with tags, fused parts or gaps limits assumed): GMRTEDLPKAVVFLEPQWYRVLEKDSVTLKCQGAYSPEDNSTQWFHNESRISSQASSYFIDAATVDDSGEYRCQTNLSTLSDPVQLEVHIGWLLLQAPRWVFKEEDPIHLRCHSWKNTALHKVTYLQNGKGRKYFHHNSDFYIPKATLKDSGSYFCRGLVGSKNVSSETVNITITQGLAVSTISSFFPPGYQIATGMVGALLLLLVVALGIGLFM

[17] = biological target: T2, mature ECD of CD16B(NA1) expressed on …; assay: as above
[18] = biological target: T3, propeptide-containing ECD of CD16B(NA1) …; assay: as above
[19] = biological target: human CD16A(48R, 158V) ECD fused to monomeric mFc.67 (human) (UniProt P08637); assay: ELISA, coated antigen-mFc, Protein L-HRP
[20] = biological target: human CD16B ECD mutant H140Y fused to monomeric mFc.67 (human) (UniProt O75015); assay: ELISA, coated antigen-mFc, Protein L-HRP

Sequence of human CD16A(48R, 158V) ECD fused to monomeric mFc.67 (human) (P08637 17-208 L66R/F176V): as the sequence (P08637 17-208 L66R) above, with F160V counted along it

Row | Molecule | EC50 [1] [nM] | EC50 [3] [nM] | EC50 [4] [nM] | EC50 [5] [nM] | EC50 [9] [nM] | further results
1 | scFv antibody comprising the variable heavy and light chain sequences of antibody 3G8 | 1 | 7.5 | 7.6 | 1.2 | – | EC50 [2]: 0.9 nM; EC50 (read off the curve) [6]: 3 nM; EC50 (read off the curve) [7]: 20 nM
2 | EGFR-1/CD16-1 TandAb (CD16-1) (bispecific antibody) QVQLQESGPGLVKPSETLSLTCTVSGGSVSSGSYYWSWIRQPPGKGLEWIGYIYYSGSTNYNPSLKSRVTISVDTSKNQFSLKLSSVTAADTAVYYCARNPISIPAFDIWGQGTMVTVSSGGSGGSGGSSYVLTQPSSVSVAPGQTATISCGGHNIGSKNVHWYQQRPGQSPVLVIYQDNKRPSGIPERFSGSNSGNTATLTISGTQAMDEADYYCQVWDNYSVLFGGGTKLTVLGGSGGSQVQLVQSGAEVKKPGESLKVSCKASGYTFTSYYMHWVRQAPGQGLEWMGIINPSGGSTSYAQKFQGRVTMTRDTSTSTVYMELSSLRSEDTAVYYCARGSAYYYDFADYWGQGTLVTVSSGGSGGSGGSQPVLTQPPSVSVAPGKTARITCGGNNIGSKSVHWYQQKPGQAPVLVIYYDSDRPSGIPERFSGSNSGNTATLTISRVEAGDEADYYCQVWDTSSDHVLFGGGTKLTVLAAAGSHHHHHH | 0.6 | – | – | – | – | EC50 [8]: 0.5 nM
3 | scFv CD16A (CD16-4) (scFv) scFv: QVQLVQSGAEVKKPGESLKVSCKASGYSFSDFYIQWVRQAPGQGLEWMGIINPGGASTTYAQKFQGRVTMTRDTSTSTVYMELSSLRSEDTAVYYCARGSAYYYDFADYWGQGTLVTVSSGGSGGSGGSGGSGGSGGSSYVLTQPSSVSVAPGQTARITCGGYNIGRQSVHWYQQKPGQAPVLVIYQDSKRPSGIPERFSGSNSGNTATLTISGTQAMDEADYYCQVWDNYTVVFGGGTKLTVLAAAGSHHHHHH | – | 1.4 | 2.5 | 2.2 | 1.7 | –
4 | scFv CD16A (CD16-5) (scFv) scFv: QVQLVQSGAEVKKPGESLKVSCKASGYTFSSYYMHWVRQAPGQGLEWMGAIEPRGVRISYAQKFQGRVTMTRDTSTSTVYMELSSLRSEDTAVYYCARGSAYYYDFADYWGQGTLVTVSSGGSGGSGGSGGSGGSGGSSYVLTQPSSVSVAPGQTARITCGGHNIGSTNVHWYQQKPGQAPVLVIYQDSKRPSGIPERFSGSNSGNTATLTISGTQAMDEADYYCQVWDNYSVQFGGGTKLTVLAAAGSHHHHHH | – | 1.4 | 0.8 | 1.2 | 1.1 | EC50 [10]: 24.9 nM
5 | scFv CD16A (CD16-3) (scFv) scFv: QVQLVQSGAEVKKPGESLKVSCKASGYTFTNYYMQWVRQAPGQGLEWMGVINPGGGSTSYAQKFQGRVTMTRDTSTSTVYMELSSLRSEDTAVYYCARGSAYYYDFADYWGQGTLVTVSSGGSGGSGGSGGSGGSGGSSYVLTQPSSVSVAPGQTARITCGGHNIGSQSVHWYQQKPGQAPVLVIYQDSKRPSGIPERFSGSNSGNTATLTISGTQAMDEADYYCQVWDNYSVVFGGGTKLTVLAAAGSHHHHHH | – | 1.4 | 1.2 | 1.2 | 1.3 | –
6 | scFv CD16A (CD16-1) (scFv, also called LSIV21 scFv) scFv: QVQLVQSGAEVKKPGESLKVSCKASGYTFTSYYMHWVRQAPGQGLEWMGIINPSGGSTSYAQKFQGRVTMTRDTSTSTVYMELSSLRSEDTAVYYCARGSAYYYDFADYWGQGTLVTVSSGGSGGSGGSGGSGGSGGSSYVLTQPSSVSVAPGQTATISCGGHNIGSKNVHWYQQRPGQSPVLVIYQDNKRPSGIPERFSGSNSGNTATLTISGTQAMDEADYYCQVWDNYSVLFGGGTKLTVLAAAGSHHHHHH | – | 16.2 | 25.7 | 14.4 | 9.5 | binding result [11]: no binding; binding result [12]: no binding; binding result [13]: no binding; EC50 (read off the curve) [14]: ~40 nM
7 | scFv CD16A (CD16-2) (scFv, also called CD16-2 scFv) scFv: QVQLVQSGAEVKKPGESLKVSCKASGYTFTSYYMHWVRQAPGQGLEWMGAIEPMYGSTSYAQKFQGRVTMTRDTSTSTVYMELSSLRSEDTAVYYCARGSAYYYDFADYWGQGTLVTVSSGGSGGSGGSGGSGGSGGSSYVLTQPSSVSVAPGQTATISCGGHNIGSKNVHWYQQRPGQSPVLVIYQDNKRPSGIPERFSGSNSGNTATLTISGTQAMDEADYYCQVWDNYSVLFGGGTKLTVLAAAGSHHHHHH | 1.6 | 2.5 | 2.8 | 1.5 | 1.2 | EC50 [8]: 1.3 nM; binding result [11]: no binding; binding result [12]: no binding; binding result [13]: no binding; EC50 (read off the curve) [15]: ~10 nM; EC50 (read off the curve) [7]: ~30 nM
8 | EGFR-1 scFv (scFv, also called scFv EGFR (EGFR-1); control scFv) scFv: QVQLQESGPGLVKPSETLSLTCTVSGGSVSSGSYYWSWIRQPPGKGLEWIGYIYYSGSTNYNPSLKSRVTISVDTSKNQFSLKLSSVTAADTAVYYCARNPISIPAFDIWGQGTMVTVSSGGSGGSGGSGGSGGSGGSQPVLTQPPSVSVAPGKTARITCGGNNIGSKSVHWYQQKPGQAPVLVIYYDSDRPSGIPERFSGSNSGNTATLTISRVEAGDEADYYCQVWDTSSDHVLFGGGTKLTVLAAAGSHHHHHH | – | – | – | – | – | binding result [16]: no binding; binding result [17]: no binding; binding result [18]: no binding
9 | BCMA-1/CD16-2 TandAb (CD16-2) (bispecific antibody) EVQLLESGGGLVQPGGSLRLSCAASGFTFSNYDMAWVRQAPGKGLEWVSSISTRGDITSYRDSVKGRFTISRDNSKNTLYLQMNSLRAEDTAVYYCARQDYYTDYMGFAYWGQGTLVTVSSGGSGGSGGSGGSSYVLTQPSSVSVAPGQTATISCGGHNIGSKNVHWYQQRPGQSPVLVIYQDNKRPSGIPERFSGSNSGNTATLTISGTQAMDEADYYCQVWDNYSVLFGGGTKLTVLGGSQVQLVQSGAEVKKPGESLKVSCKASGYTFTSYYMHWVRQAPGQGLEWMGAIEPMYGSTSYAQKFQGRVTMTRDTSTSTVYMELSSLRSEDTAVYYCARGSAYYYDFADYWGQGTLVTVSSGGSGGSGGSGGSAIQMTQSPSSLSASVGDRVTITCRASEDIYNGLAWYQQKPGKAPKLLIYGASSLQDGVPSRFSGSGSGTEFTLTISSLQPEDEATYYCAGPHKYPLTFGGGTKVEIK | – | – | – | – | – | EC50 [19]: 1.1 nM; EC50 [20]: 1.2 nM
10 | scFv CD16A (CD16-7) (scFv) scFv: QVQLVQSGAEVKKPGESLKVSCKASGYTFTNYYMHWVRQAPGQGLEWMGVIEPDGGRRTYAQKFQGRVTMTRDTSTSTVYMELSSLRSEDTAVYYCARGSAYYYDFADYWGQGTLVTVSSGGSGGSGGSGGSGGSGGSEIVLTQSPATLSLSPGERATLSCRGHQGVSGDVHWYQQKPGQAPRLLIYQANKRASGIPARFSGSGSGTEFTLTISSLEPEDFAVYYCQQWDNYSVTFGQGTKVEIKAAAGSHHHHHH | – | 1.6 | 2.4 | 1.8 | 1.7 | –
